Laboratory results published in US7871610B2, “Antibodies to Tie1 ectodomain” (Dyax Corp., priority 2003, dated 2011).

Key:
[1] = target: T1, recombinant human Tie1-Fc (Homo sapiens, UniProt P35590); assay: BIAcore, coated E3 IgGs with recombinant human Tie-1 Fc; format: binding; conditions: IgG, human Tie1 Fc
T1 construct: selected against the Tie1 extracellular domain fused to human Fc or to a histidine purification tag
T1 sequence (P35590 22-759 limits assumed): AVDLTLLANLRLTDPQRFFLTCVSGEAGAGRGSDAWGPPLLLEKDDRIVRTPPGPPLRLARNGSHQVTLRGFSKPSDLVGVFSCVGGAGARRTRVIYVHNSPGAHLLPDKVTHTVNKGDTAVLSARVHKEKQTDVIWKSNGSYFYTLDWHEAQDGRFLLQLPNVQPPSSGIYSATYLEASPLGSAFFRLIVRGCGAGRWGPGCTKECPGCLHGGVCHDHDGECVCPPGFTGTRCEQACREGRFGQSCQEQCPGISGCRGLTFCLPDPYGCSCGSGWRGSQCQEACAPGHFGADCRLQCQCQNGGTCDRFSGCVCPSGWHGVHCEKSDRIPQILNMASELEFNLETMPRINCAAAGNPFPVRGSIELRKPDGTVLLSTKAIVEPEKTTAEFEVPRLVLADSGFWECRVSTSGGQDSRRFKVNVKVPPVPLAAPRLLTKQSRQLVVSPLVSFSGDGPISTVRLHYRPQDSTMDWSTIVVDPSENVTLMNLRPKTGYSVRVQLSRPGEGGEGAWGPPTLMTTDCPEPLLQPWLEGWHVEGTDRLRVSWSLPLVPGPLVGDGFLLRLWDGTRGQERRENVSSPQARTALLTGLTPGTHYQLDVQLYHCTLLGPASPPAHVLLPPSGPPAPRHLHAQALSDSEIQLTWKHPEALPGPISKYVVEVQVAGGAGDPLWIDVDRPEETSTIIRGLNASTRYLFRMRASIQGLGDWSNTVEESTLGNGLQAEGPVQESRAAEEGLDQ
Experimental: The germlined E3 IgG1 stock solution 0.63 mg/ml was diluted 1/50 in a buffer of pH4.5 and the parental E3 IgG1 stock solution 0.56 mg/ml (2143-001) was diluted 1/50 in a buffer of pH 4.5. The IgG were directly coated onto a CM5 chip. The surface of the chips was activated with a 7 minute pulse of 0.05M NHS/0.2M EDC and the IgG was flowed over until 780RU germlined E3-IgG and 728 non germlined E3 IgG was coated onto the surface. All flow cells were subsequently deactivated with a 7 minute pulse of 1M ethanolamine hydrochloride pH 8.5. All analysis was performed in HBS buffer. Purified recombinant human Tie-1 Fc was diluted 1/28.7 in HBS to obtain a 400 nM stock solution. Serial dilutions were made to obtain 200 nM, 100 nM, 50 nM and 25 nM Tie-1 Fc stocks. For analysis of the association phase samples were injected at 30 μl/min for 8.3 minutes using kinject program. This was followed by a 40 minutes dissociation phase. Any antigen remaining associated to the surface was stripped from the IgG surface at a flow of 50 μl/min with two injections of 10 mM glycine pH 1.5 for 30 secods. All samples were run and analyzed in duplicate
Sensorgrams were analyzed using the simultaneous ka/kd fitting program with 1:1 model in the BIAEVALUATION™ software 3.1.

Tie1 = Tie1 (Homo sapiens, UniProt P35590); assay: Tie1 phosphorylation assay in HDMVECs; format: cell-based
Experimental: COS1 cells were transfected with pcDNA3-Tie1-V5. After 24 h of transfection, the cells were serum starved for 8 h and then treated with E3 IgG. For the Tie1 phosphorylation assay, HDMVECs were cultured on 10 cm dishes to near confluence, starved (8-16 h) in serum free medium and stimulated as indicated. After the stimulations, the cells were lysed in lysis buffer (RIPA-DOC: 50 mM Tris-HCl pH 8.0, 150 mM NaCl, 1% Triton-X-100, 0.1% SDS, 0.5% DOC, 10 mM EDTA, supplemented with aprotinin, leupeptin, PMSF and sodium vanadate). Clarified lysates from transfected COS1 cells or HDMVECs were immunoprecipitated with anti-V5 or anti-Tie1 B9, respectively. Proteins were separated by SDS-PAGE, transferred to nitrocellulose and immunoblotted using the anti-phosphotyrosine and anti-Tie1 (R&D systems) antibodies.
To test if the E3 IgG binding to the extracellular region of Tie1 induces autophosphorylation of Tie1, the Tie1 receptor phosphorylation level in response to E3 IgG treatment was studied in transiently transfected COS1 cells and human primary endothelial cells. COS1 cells were transfected with an expression vector containing a V5-tagged full length Tie1 cDNA, and, after serum starvation, the cells were treated with E3 IgG (200 ng/ml). Cell lysates were extracted at several time points and Tie1 was immunoprecipitated with anti-V5 followed by western blotting using anti-phosphotyrosine and anti-Tie1 antibodies. […] To determine if E3 IgG induces Tie1 phosphorylation in primary endothelial cells, HDMVEC cells were serum starved and stimulated with several concentrations of E3 for 60 min. […] Also higher concentrations of E3 (500-1000 ng/ml) induced Tie1 phosphorylation but the response was more rapid and was most prominent after 5 min of stimulation.
To study the kinetics of E3 IgG induced Tie1 activation, cells were stimulated with E3 IgG (200 ng/ml) and receptor phosphorylation was studied at various time points. Tie1 phosphorylation was highest 15-30 min after E3 IgG treatment but phosphorylation persisted for up to 1 h.

Tie1, sequence (P35590 22-1138): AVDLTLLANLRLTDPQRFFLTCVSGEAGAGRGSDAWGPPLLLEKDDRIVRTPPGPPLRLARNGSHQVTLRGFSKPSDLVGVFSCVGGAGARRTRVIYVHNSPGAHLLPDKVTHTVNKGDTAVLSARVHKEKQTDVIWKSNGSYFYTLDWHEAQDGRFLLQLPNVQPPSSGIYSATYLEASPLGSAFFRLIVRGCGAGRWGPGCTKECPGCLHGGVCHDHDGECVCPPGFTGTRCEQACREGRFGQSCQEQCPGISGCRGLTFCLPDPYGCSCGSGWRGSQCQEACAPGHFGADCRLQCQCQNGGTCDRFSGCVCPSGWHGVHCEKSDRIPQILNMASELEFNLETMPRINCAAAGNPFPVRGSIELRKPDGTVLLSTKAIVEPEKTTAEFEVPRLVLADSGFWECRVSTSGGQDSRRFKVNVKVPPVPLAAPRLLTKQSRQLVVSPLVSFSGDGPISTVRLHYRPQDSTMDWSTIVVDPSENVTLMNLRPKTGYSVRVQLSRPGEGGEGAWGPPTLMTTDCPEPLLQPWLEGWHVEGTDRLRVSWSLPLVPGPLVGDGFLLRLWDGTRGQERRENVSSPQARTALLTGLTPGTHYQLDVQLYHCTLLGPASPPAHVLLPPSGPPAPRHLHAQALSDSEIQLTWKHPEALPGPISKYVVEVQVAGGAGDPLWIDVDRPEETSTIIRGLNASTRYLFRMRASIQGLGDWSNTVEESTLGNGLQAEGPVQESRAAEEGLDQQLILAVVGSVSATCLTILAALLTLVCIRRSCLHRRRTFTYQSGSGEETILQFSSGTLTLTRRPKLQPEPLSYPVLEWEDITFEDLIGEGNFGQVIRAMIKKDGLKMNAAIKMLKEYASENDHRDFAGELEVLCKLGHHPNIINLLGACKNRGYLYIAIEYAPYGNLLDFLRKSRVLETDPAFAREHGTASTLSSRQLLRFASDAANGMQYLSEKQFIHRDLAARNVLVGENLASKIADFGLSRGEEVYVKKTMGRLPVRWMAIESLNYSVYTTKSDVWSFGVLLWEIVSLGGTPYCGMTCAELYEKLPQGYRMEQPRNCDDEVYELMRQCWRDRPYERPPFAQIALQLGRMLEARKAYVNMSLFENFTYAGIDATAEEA

B1: E3: human anti-Tie1 antibody from Fab phage library; HC SEQ ID NO:114, LC SEQ ID NO:116 (antibody, V domains shown)
VH: EVQLLESGGGLVQPGGSLRLSCAASGFTFSMYGMVWVRQAPGKGLEWVSVISPSGGNTGYADSVKGRFTISRDNSKNTLYLQVNSLRAEDTAVYYCARAPRGYSYGYYYWGQGTLVTVSSASTKGPSVFPLAPSSKSTSGG
VL: DIQMTQSPLSLSASVGDRVTITCRASQGIGHYLAWYQQKPGKVPKLLIYTASTLQSGVPSRFSGSGSGTDFTLTINSLQPEDVATYYCQQFNSYPHTFGQGTRLDIK
modifications: Synthetically generated peptide
For B1, the “effect of germlining on binding activity” value [1] was “minimal impact on the binding activity”, the “persistence of Tie1 phosphorylation” value (Tie1; E3 IgG 200 ng/ml) was “up to 1 h” and the “time of highest Tie1 phosphorylation” value (Tie1; E3 IgG 200 ng/ml) was 15 to 30 min. For the same molecule, the “time of most prominent Tie1 phosphorylation” value (Tie1; HDMVEC, E3 500-1000 ng/ml) was 5 min, the “concentration showing Tie1 receptor phosphorylation” value (Tie1; HDMVEC, serum starved, stimulated 60 min) was 50 to 200 ng/mL and the “higher concentrations inducing Tie1 phosphorylation” value (Tie1; HDMVEC, response more rapid) was 500 to 1000 ng/mL.
